Biological target: green fluorescent protein (GFP), EGFP expressed from pCAG-GFP [GFP: P42212]
Assay: cell-based or functional assay

## CRE-DOG (Cre-recombinase Dependent on GFP), GBP2+GBP7 combination: N-CreintG with C-CreintG
  induction of recombination of a floxed luciferase reporter in 293T cells: 20 to 60 fold
